The values below come from publication doi:10.1101/2024.12.23.630085, “Accurate sequence-to-affinity models for SH2 domains from multi-round peptide binding assays coupled with free-energy regression” (bioRxiv, 2025).

Sequences and labels used below:
B1: Syn-F-1 (synthetic) (peptide)
peptide: Ac-QLHVHP[pY]EKVEDG-NH2
SMILES: CC(=O)N[C@@H](CCC(N)=O)C(=O)N[C@@H](CC(C)C)C(=O)N[C@@H](Cc1c[nH]cn1)C(=O)N[C@H](C(=O)N[C@@H](Cc1c[nH]cn1)C(=O)N1CCC[C@H]1C(=O)N[C@@H](Cc1ccc(OP(=O)(O)O)cc1)C(=O)N[C@@H](CCC(=O)O)C(=O)N[C@@H](CCCCN)C(=O)N[C@H](C(=O)N[C@@H](CCC(=O)O)C(=O)N[C@@H](CC(=O)O)C(=O)NCC(N)=O)C(C)C)C(C)C
notes: source: synthetic peptide (SynPeptide, China)
B2: CLIP2 pY972 (peptide)
peptide: Ac-QSDQRR[pY]SLIDRG-NH2
SMILES: CC[C@H](C)[C@H](NC(=O)[C@H](CC(C)C)NC(=O)[C@H](CO)NC(=O)[C@H](Cc1ccc(OP(=O)(O)O)cc1)NC(=O)[C@H](CCCNC(=N)N)NC(=O)[C@H](CCCNC(=N)N)NC(=O)[C@H](CCC(N)=O)NC(=O)[C@H](CC(=O)O)NC(=O)[C@H](CO)NC(=O)[C@H](CCC(N)=O)NC(C)=O)C(=O)N[C@@H](CC(=O)O)C(=O)N[C@@H](CCCNC(=N)N)C(=O)NCC(N)=O
notes: flank added to the 11-residue stretch (surmised: last residue of the library's constant GQSGQ); CLIP2, human, around pY972; flank added to the 11-residue stretch (surmised: first residue of the library's constant GGQSG); source: synthetic peptide (SynPeptide, China)
B3: CLIP2 pY972 R977P (peptide)
peptide: Ac-QSDQRR[pY]SLIDPG-NH2
SMILES: CC[C@H](C)[C@H](NC(=O)[C@H](CC(C)C)NC(=O)[C@H](CO)NC(=O)[C@H](Cc1ccc(OP(=O)(O)O)cc1)NC(=O)[C@H](CCCNC(=N)N)NC(=O)[C@H](CCCNC(=N)N)NC(=O)[C@H](CCC(N)=O)NC(=O)[C@H](CC(=O)O)NC(=O)[C@H](CO)NC(=O)[C@H](CCC(N)=O)NC(C)=O)C(=O)N[C@@H](CC(=O)O)C(=O)N1CCC[C@H]1C(=O)NCC(N)=O
notes: flank added to the 11-residue stretch (surmised: last residue of the library's constant GQSGQ); CLIP2, human, around pY972, natural variant R977P; flank added to the 11-residue stretch (surmised: first residue of the library's constant GGQSG); source: synthetic peptide (SynPeptide, China)
B4: ACTB pY240 (peptide)
peptide: Ac-QSLEKS[pY]ELPDGG-NH2
SMILES: CC(=O)N[C@@H](CCC(N)=O)C(=O)N[C@@H](CO)C(=O)N[C@@H](CC(C)C)C(=O)N[C@@H](CCC(=O)O)C(=O)N[C@@H](CCCCN)C(=O)N[C@@H](CO)C(=O)N[C@@H](Cc1ccc(OP(=O)(O)O)cc1)C(=O)N[C@@H](CCC(=O)O)C(=O)N[C@@H](CC(C)C)C(=O)N1CCC[C@H]1C(=O)N[C@@H](CC(=O)O)C(=O)NCC(=O)NCC(N)=O
notes: flank added to the 11-residue stretch (surmised: last residue of the library's constant GQSGQ); ACTB, human, around pY240; flank added to the 11-residue stretch (surmised: first residue of the library's constant GGQSG); source: synthetic peptide (SynPeptide, China)
B5: ACTB pY240 P243L (peptide)
peptide: Ac-QSLEKS[pY]ELLDGG-NH2
SMILES: CC(=O)N[C@@H](CCC(N)=O)C(=O)N[C@@H](CO)C(=O)N[C@@H](CC(C)C)C(=O)N[C@@H](CCC(=O)O)C(=O)N[C@@H](CCCCN)C(=O)N[C@@H](CO)C(=O)N[C@@H](Cc1ccc(OP(=O)(O)O)cc1)C(=O)N[C@@H](CCC(=O)O)C(=O)N[C@@H](CC(C)C)C(=O)N[C@@H](CC(C)C)C(=O)N[C@@H](CC(=O)O)C(=O)NCC(=O)NCC(N)=O
notes: flank added to the 11-residue stretch (surmised: last residue of the library's constant GQSGQ); ACTB, human, around pY240, natural variant P243L; flank added to the 11-residue stretch (surmised: first residue of the library's constant GGQSG); source: synthetic peptide (SynPeptide, China)
B6: Syn-F-2 (synthetic) (peptide)
peptide: Ac-QMEKHV[pY]ESVTQG-NH2
SMILES: CSCC[C@H](NC(=O)[C@H](CCC(N)=O)NC(C)=O)C(=O)N[C@@H](CCC(=O)O)C(=O)N[C@@H](CCCCN)C(=O)N[C@@H](Cc1c[nH]cn1)C(=O)N[C@H](C(=O)N[C@@H](Cc1ccc(OP(=O)(O)O)cc1)C(=O)N[C@@H](CCC(=O)O)C(=O)N[C@@H](CO)C(=O)N[C@H](C(=O)N[C@H](C(=O)N[C@@H](CCC(N)=O)C(=O)NCC(N)=O)[C@@H](C)O)C(C)C)C(C)C
notes: as for B1
B7: FITC-Ahx-GDG-pY-EEISPLLL-NH2 (peptide)
peptide: {FITC-Ahx}-GDG[pY]EEISPLLL-NH2
SMILES: CC[C@H](C)[C@H](NC(=O)[C@H](CCC(=O)O)NC(=O)[C@H](CCC(=O)O)NC(=O)[C@H](Cc1ccc(OP(=O)(O)O)cc1)NC(=O)CNC(=O)[C@H](CC(=O)O)NC(=O)CNC(=O)CCCCCNC(=S)Nc1ccc2c(c1)C(=O)OC21c2ccc(O)cc2Oc2cc(O)ccc21)C(=O)N[C@@H](CO)C(=O)N1CCC[C@H]1C(=O)N[C@@H](CC(C)C)C(=O)N[C@@H](CC(C)C)C(=O)N[C@@H](CC(C)C)C(N)=O
notes: fluorescent probe, c-Src SH2 consensus peptide; also called c-Src SH2 consensus; source: synthetic peptide (SynPeptide, China)
B8: ACTA1 pY171 (peptide)
peptide: Ac-QPIFEG[pY]ALPHAG-NH2
SMILES: CC[C@H](C)[C@H](NC(=O)[C@@H]1CCCN1C(=O)[C@H](CCC(N)=O)NC(C)=O)C(=O)N[C@@H](Cc1ccccc1)C(=O)N[C@@H](CCC(=O)O)C(=O)NCC(=O)N[C@@H](Cc1ccc(OP(=O)(O)O)cc1)C(=O)N[C@@H](C)C(=O)N[C@@H](CC(C)C)C(=O)N1CCC[C@H]1C(=O)N[C@@H](Cc1c[nH]cn1)C(=O)N[C@@H](C)C(=O)NCC(N)=O
notes: flank added to the 11-residue stretch (surmised: last residue of the library's constant GQSGQ); ACTA1, human, around pY171; flank added to the 11-residue stretch (surmised: first residue of the library's constant GGQSG); also called ACTA1 pTyr Y171; source: synthetic peptide (SynPeptide, China)
B9: CBS pY308 (peptide)
peptide: Ac-QVEGIG[pY]DFIPTG-NH2
SMILES: CC[C@H](C)[C@H](NC(=O)CNC(=O)[C@H](CCC(=O)O)NC(=O)[C@@H](NC(=O)[C@H](CCC(N)=O)NC(C)=O)C(C)C)C(=O)NCC(=O)N[C@@H](Cc1ccc(OP(=O)(O)O)cc1)C(=O)N[C@@H](CC(=O)O)C(=O)N[C@@H](Cc1ccccc1)C(=O)N[C@H](C(=O)N1CCC[C@H]1C(=O)N[C@H](C(=O)NCC(N)=O)[C@@H](C)O)[C@@H](C)CC
notes: flank added to the 11-residue stretch (surmised: last residue of the library's constant GQSGQ); CBS, human, around pY308; flank added to the 11-residue stretch (surmised: first residue of the library's constant GGQSG); source: synthetic peptide (SynPeptide, China)
B10: CBS pY308 G307S (peptide)
peptide: Ac-QVEGIS[pY]DFIPTG-NH2
SMILES: CC[C@H](C)[C@H](NC(=O)CNC(=O)[C@H](CCC(=O)O)NC(=O)[C@@H](NC(=O)[C@H](CCC(N)=O)NC(C)=O)C(C)C)C(=O)N[C@@H](CO)C(=O)N[C@@H](Cc1ccc(OP(=O)(O)O)cc1)C(=O)N[C@@H](CC(=O)O)C(=O)N[C@@H](Cc1ccccc1)C(=O)N[C@H](C(=O)N1CCC[C@H]1C(=O)N[C@H](C(=O)NCC(N)=O)[C@@H](C)O)[C@@H](C)CC
notes: flank added to the 11-residue stretch (surmised: last residue of the library's constant GQSGQ); CBS, human, around pY308, natural variant G307S; flank added to the 11-residue stretch (surmised: first residue of the library's constant GGQSG); source: synthetic peptide (SynPeptide, China)
B11: SLAP-130 pY595 (peptide)
peptide: Ac-QDDQEV[pY]DDVAEG-NH2
notes: flank added to the 11-residue stretch (surmised: last residue of the library's constant GQSGQ); SLAP-130, human, around pY595; flank added to the 11-residue stretch (surmised: first residue of the library's constant GGQSG); also called SLAP-130 Y595; source: synthetic peptide (SynPeptide, China)

Non-standard residues stand in square brackets, D forms with d. *: point of attachment. FITC = O=C1OC2(c3ccc(O)cc3Oc3cc(O)ccc32)c2ccc(NC(=S)*)cc21; pY = N[C@@H](Cc1ccc(OP(=O)(O)O)cc1)C(=O)O; Ahx = NCCCCCC(=O)O

The target in the first experiment is T1, Fyn SH2 domain (142-248) (human, UniProt P06241 142-248, biotin (on the AviTag)).
T1 construct: SH2 domain of human Fyn kinase, residues 142-248; source: E. coli C43(DE3) with BirA helper plasmid, purified (HisTrap, anion exchange, Ulp1 cleavage, SEC); not shown: His6-SUMO, N-terminal, cleaved; AviTag, C-terminal, kept
T1 sequence (P06241 142-248): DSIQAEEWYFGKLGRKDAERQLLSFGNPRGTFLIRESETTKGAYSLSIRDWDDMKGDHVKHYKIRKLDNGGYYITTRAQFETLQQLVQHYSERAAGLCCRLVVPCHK
Put plainly: fluorescence polarisation; competition mode; unlabelled phosphopeptide against 0.4 nM FITC-Ahx-GDG-pY-EEISPLLL-NH2 and 4.125 nM Fyn SH2, as printed (Tables S3 and S5). The settings on record: both partners purified.
The Kd is the equilibrium constant for the complex coming apart. Read a high Kd as weaker binding. The molecule B1 gave a Kd of 30.2 nM. For the molecule B2, the Kd amounted to 78.5 nM.

B3 displayed a Kd of 27 nM. In turn, B4 showed a Kd of 159 nM.

B5 yielded a Kd of 141 nM. B6: the Kd was 18.3 nM.

Turning to B7, the binding result is recorded as “binds”. B8 returned a Kd of 47.3 nM. B9 came in with a Kd of 126 nM. Consider B10, for which the Kd was 185 nM.

In another experiment the target is T2, c-Src SH2 domain (UniProt P12931-1 151-248, biotin (biotinylated SH2 domain of the selection)).
T2 construct: SH2 domain of c-Src kinase; source: purified
Put plainly: fluorescence polarisation; competition mode; unlabelled phosphopeptide against 30 nM FITC-Ahx-GDG-pY-EEISPLLL-NH2 and 122.745 nM c-Src SH2 (123.745 to 125.745 in three rows; Table S3). The settings on record: both partners purified. (In fluorescence polarisation assays a small probe gives low polarisation when free and higher when bound to something large.)
B11 registered a Kd of 191 nM.

In another experiment the target is T3, Lyn SH2 domain (121-228) (human, UniProt P07948 121-228, biotin (on the AviTag)).
T3 construct: source: E. coli C43(DE3) with BirA helper plasmid, purified (HisTrap, anion exchange, Ulp1 cleavage, SEC); not shown: His6-SUMO, N-terminal, cleaved; AviTag, C-terminal, kept
T3 sequence (P07948 121-228): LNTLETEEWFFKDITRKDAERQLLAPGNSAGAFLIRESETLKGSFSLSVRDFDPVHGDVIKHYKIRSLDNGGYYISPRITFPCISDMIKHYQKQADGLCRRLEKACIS
Briefly: fluorescence polarisation; competition mode; unlabelled phosphopeptide against 30 nM FITC-Ahx-GDG-pY-EEISPLLL-NH2 and 106.5 nM Lyn SH2 (Table S3). The settings on record: both partners purified.
B11 yielded a Kd of 240 nM.

B7: the binding result is on record as “binds”.
